Consider nine molecules from US20230366033A1 (University of Texas, published 2023).

B1: GRB2 OB1 peptide KYDFKATADDELSFKRG (peptide)
peptide: KYDFKATADDELSFKRG
notes: Synthetic, from GenScript; also called GRB2-derived OB1 peptide
B2: Tyrosine-phosphorylated MRE11 peptide WVNpYQDGNLN (peptide)
peptide: WVN[pY]QDGNLN
modifications: not fully specified
notes: also called Y111 phosphorylated MRE11 peptide; tyrosine phosphorylated peptide
B3: Phosphorylated H2AX peptide PSGGKKATQA(pS)QEY (pS139 only) (peptide)
peptide: PSGGKKATQAXQEY
modifications: phosphoserine at position 11 (S139 of H2AX)
notes: Synthetic, from GenScript; also called pS139 H2AX
B4: Flag-MRE11 expressed in HEK293T cells (enzyme, UniProt P49959 1-708, looked up)
chain: MSTADALDDENTFKILVATDIHLGFMEKDAVRGNDTFVTLDEILRLAQENEVDFILLGGDLFHENKPSRKTLHTCLELLRKYCMGDRPVQFEILSDQSVNFGFSKFPWVNYQDGNLNISIPVFSIHGNHDDPTGADALCALDILSCAGFVNHFGRSMSVEKIDISPVLLQKGSTKIALYGLGSIPDERLYRMFVNKKVTMLRPKEDENSWFNLFVIHQNRSKHGSTNFIPEQFLDDFIDLVIWGHEHECKIAPTKNEQQLFYISQPGSSVVTSLSPGEAVKKHVGLLRIKGRKMNMHKIPLHTVRQFFMEDIVLANHPDIFNPDNPKVTQAIQSFCLEKIEEMLENAERERLGNSHQPEKPLVRLRVDYSGGFEPFSVLRFSQKFVDRVANPKDIIHFFRHREQKEKTGEEINFGKLITKPSEGTTLRVEDLVKQYFQTAEKNVQLSLLTERGMGEAVQEFVDKEEKDAIEELVKYQLEKTQRFLKERHIDALEDKIDEEVRRFRETRQKNTNEEDDEVREAMTRARALRSQSEESASAFSADDLMSIDLAEQMANDSDDSISAATNKGRGRGRGRRGGRGQNSASRGGSQRGRADTGLETSTRSRNSKTAVSASRNMSIIDAFKSTRQQPSRNVTTKNYSEVIEVDESDVEEDIFPTTSKTDQRWSSTSSSKIMSQSQVSKGVDFESSEDDDDDPFMNTSSLRRNRR
notes: not shown: Flag tag
B5: MRE11, endogenous, in extracts of human cell lines (HEK293T, HeLa, U2OS) (enzyme, UniProt P49959 2-708, looked up)
chain: STADALDDENTFKILVATDIHLGFMEKDAVRGNDTFVTLDEILRLAQENEVDFILLGGDLFHENKPSRKTLHTCLELLRKYCMGDRPVQFEILSDQSVNFGFSKFPWVNYQDGNLNISIPVFSIHGNHDDPTGADALCALDILSCAGFVNHFGRSMSVEKIDISPVLLQKGSTKIALYGLGSIPDERLYRMFVNKKVTMLRPKEDENSWFNLFVIHQNRSKHGSTNFIPEQFLDDFIDLVIWGHEHECKIAPTKNEQQLFYISQPGSSVVTSLSPGEAVKKHVGLLRIKGRKMNMHKIPLHTVRQFFMEDIVLANHPDIFNPDNPKVTQAIQSFCLEKIEEMLENAERERLGNSHQPEKPLVRLRVDYSGGFEPFSVLRFSQKFVDRVANPKDIIHFFRHREQKEKTGEEINFGKLITKPSEGTTLRVEDLVKQYFQTAEKNVQLSLLTERGMGEAVQEFVDKEEKDAIEELVKYQLEKTQRFLKERHIDALEDKIDEEVRRFRETRQKNTNEEDDEVREAMTRARALRSQSEESASAFSADDLMSIDLAEQMANDSDDSISAATNKGRGRGRGRRGGRGQNSASRGGSQRGRADTGLETSTRSRNSKTAVSASRNMSIIDAFKSTRQQPSRNVTTKNYSEVIEVDESDVEEDIFPTTSKTDQRWSSTSSSKIMSQSQVSKGVDFESSEDDDDDPFMNTSSLRRNRR
B6: GST-fused GRB2 N-terminal SH3 (nSH3) domain (other, UniProt P62993 1-58, looked up)
chain: MEAIAKYDFKATADDELSFKRGDILKVLNEECDQNWYKAELNGKDGFIPKNYIEMKPH
notes: domain: N-terminal SH3 (nSH3); not shown: glutathione S-transferase (GST)
B7: GST-fused GRB2 C-terminal SH3 (cSH3) domain (other, UniProt P62993 156-217, looked up)
chain: QQPTYVQALFDFDPQEDGELGFRRGDFIHVMDNSDPNWWKGACHGQTGMFPRNYVTPVNRNV
notes: domain: C-terminal (cSH3); not shown: glutathione S-transferase (GST)
B8: RPA70 N-terminal domain (residues 1-120), purified (other, UniProt P27694 1-120, looked up)
chain: MVGQLSEGAIAAIMQKGDTNIKPILQVINIRPITTGNSPPRYRLLMSDGLNTLSSFMLATQLNPLVEEEQLSSNCVCQIHRFIVNTLKDGRRVVILMELEVLKSAEAVGVKIGNPVPYNE
modifications: Atto488 label
notes: range 1-120; also called RPA70 N-terminal OB1 domain; RPA70N (1-120)
B9: Phosphorylated H2AX peptide PSGGKKATQASQE(pY) (pY142 only) (peptide)
peptide: PSGGKKATQASQEX
modifications: phosphotyrosine at position 14 (Y142 of H2AX)
notes: Synthetic, from GenScript; also called pY142 H2AX

For experiment [1], the target named is B8. Briefly: MST, 50 nM Atto488-labelled RPA70 N-terminal domain (1-120), peptide titrated [panel D].
Experiment [2] deals with T1, GRB2-SH2 domain, purified, Atto488-labelled (UniProt P62993 60-152, limits assumed, Atto488 label).
T1 construct: domain: SH2; Individual GRB2 domains generated as described before (Ahmed et al., 2010)
T1 sequence (P62993 60-152 limits assumed): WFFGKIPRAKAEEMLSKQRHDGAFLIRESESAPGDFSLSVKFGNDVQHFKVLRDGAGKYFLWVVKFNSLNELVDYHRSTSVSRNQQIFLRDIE
Briefly: MST with the Y111 phosphorylated MRE11 peptide.

For experiment [3], the target named is T2, GRB2 (growth factor receptor-bound protein 2), wild-type, full-length, bacterially expressed and purified (UniProt P62993 1-217, Atto488 label where used as the labelled partner in MST).
T2 construct: domain: full-length; also called WTGRB2; non-ubiquitinated GRB2
T2 sequence (P62993 whole entry): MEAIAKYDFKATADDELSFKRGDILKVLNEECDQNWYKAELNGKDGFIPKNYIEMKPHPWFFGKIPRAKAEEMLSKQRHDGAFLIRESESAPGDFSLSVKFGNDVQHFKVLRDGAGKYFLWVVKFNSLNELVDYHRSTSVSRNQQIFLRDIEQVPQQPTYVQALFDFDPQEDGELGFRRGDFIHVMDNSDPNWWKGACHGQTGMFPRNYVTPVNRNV
The experiment is described as follows: MST with the Y111 phosphorylated MRE11 peptide.

The target in experiment [4] is T1, GRB2-SH2 domain, purified, …. The experiment is described as follows: MST, 100 nM Atto488-labelled GRB2-SH2 domain, peptide titrated.
Experiment [5] addresses T3, NBS1, endogenous, in HEK293T cell extracts (UniProt O60934 1-754).
T3 sequence (looked up): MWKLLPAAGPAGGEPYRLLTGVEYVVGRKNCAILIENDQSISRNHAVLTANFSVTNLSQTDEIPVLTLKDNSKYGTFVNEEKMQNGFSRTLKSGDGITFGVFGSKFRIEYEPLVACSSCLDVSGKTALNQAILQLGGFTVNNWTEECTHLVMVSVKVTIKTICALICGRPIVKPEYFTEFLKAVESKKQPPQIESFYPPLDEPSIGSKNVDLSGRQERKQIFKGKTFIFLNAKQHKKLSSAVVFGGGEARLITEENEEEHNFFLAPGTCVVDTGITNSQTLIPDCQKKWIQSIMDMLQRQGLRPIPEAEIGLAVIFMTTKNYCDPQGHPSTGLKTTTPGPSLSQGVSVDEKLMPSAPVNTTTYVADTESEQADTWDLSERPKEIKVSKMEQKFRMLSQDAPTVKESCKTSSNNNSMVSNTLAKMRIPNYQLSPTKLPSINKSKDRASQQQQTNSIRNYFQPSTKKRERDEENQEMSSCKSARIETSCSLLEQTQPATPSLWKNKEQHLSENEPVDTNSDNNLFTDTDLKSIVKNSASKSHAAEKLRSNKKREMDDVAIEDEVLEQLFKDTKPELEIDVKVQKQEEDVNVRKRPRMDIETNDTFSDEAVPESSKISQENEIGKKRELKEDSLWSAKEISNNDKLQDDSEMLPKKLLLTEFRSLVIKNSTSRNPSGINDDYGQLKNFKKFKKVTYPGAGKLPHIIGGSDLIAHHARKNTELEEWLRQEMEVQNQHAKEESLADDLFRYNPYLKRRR
The experiment is described as follows: Flag-M2 immunoprecipitation from HEK293T cells, unperturbed or 5 Gy IR, western blot. Background: Immunoblotting shows a protein as a band on a membrane.

Experiment [6] addresses T4, Flag-RAD50 expressed in HEK293T cells (UniProt Q92878 1-1312, limits assumed).
T4 construct: not shown: Flag tag
T4 sequence (looked up): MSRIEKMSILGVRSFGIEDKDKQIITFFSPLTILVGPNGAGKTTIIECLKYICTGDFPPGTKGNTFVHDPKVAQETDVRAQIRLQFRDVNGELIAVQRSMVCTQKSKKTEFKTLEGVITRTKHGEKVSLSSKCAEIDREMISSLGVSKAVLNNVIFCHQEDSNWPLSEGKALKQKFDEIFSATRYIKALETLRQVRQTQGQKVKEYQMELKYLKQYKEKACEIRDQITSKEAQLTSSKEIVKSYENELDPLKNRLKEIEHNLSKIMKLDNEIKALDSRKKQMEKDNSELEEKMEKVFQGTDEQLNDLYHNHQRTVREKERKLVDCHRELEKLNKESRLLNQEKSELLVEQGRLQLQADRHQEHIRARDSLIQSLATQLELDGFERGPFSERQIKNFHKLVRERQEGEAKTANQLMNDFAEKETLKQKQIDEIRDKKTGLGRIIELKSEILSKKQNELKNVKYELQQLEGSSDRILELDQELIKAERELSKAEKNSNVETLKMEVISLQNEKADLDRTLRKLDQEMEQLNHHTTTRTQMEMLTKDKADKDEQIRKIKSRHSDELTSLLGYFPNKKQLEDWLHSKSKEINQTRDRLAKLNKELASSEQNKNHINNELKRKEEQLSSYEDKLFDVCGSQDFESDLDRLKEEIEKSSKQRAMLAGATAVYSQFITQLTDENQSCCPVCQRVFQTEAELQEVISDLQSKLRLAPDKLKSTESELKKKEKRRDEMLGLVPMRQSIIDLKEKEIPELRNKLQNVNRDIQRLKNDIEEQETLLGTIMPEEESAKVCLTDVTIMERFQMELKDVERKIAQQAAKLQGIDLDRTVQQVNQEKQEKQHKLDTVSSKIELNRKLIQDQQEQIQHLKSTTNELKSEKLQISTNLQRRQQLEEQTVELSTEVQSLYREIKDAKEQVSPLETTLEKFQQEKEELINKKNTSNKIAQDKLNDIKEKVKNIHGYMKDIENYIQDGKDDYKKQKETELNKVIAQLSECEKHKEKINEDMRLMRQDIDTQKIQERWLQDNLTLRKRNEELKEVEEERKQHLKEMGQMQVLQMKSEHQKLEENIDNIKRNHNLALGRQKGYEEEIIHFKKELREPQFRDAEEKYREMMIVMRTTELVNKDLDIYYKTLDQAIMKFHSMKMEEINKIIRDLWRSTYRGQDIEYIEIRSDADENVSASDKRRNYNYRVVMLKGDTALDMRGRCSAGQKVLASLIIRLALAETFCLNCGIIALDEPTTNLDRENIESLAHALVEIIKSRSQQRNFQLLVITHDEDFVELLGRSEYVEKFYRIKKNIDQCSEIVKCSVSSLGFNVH
Briefly: Flag-M2 immunoprecipitation from HEK293T cells co-transfected with RFP-GRB2, western blot [panel E].

In experiment [7] the target is T5, Flag-tagged POLQ (polymerase theta) overexpressed in HEK293T cells (UniProt O75417 1-2590, limits assumed).
T5 construct: also called Flag-POLQ; not shown: Flag tag
T5 sequence (O75417 whole entry): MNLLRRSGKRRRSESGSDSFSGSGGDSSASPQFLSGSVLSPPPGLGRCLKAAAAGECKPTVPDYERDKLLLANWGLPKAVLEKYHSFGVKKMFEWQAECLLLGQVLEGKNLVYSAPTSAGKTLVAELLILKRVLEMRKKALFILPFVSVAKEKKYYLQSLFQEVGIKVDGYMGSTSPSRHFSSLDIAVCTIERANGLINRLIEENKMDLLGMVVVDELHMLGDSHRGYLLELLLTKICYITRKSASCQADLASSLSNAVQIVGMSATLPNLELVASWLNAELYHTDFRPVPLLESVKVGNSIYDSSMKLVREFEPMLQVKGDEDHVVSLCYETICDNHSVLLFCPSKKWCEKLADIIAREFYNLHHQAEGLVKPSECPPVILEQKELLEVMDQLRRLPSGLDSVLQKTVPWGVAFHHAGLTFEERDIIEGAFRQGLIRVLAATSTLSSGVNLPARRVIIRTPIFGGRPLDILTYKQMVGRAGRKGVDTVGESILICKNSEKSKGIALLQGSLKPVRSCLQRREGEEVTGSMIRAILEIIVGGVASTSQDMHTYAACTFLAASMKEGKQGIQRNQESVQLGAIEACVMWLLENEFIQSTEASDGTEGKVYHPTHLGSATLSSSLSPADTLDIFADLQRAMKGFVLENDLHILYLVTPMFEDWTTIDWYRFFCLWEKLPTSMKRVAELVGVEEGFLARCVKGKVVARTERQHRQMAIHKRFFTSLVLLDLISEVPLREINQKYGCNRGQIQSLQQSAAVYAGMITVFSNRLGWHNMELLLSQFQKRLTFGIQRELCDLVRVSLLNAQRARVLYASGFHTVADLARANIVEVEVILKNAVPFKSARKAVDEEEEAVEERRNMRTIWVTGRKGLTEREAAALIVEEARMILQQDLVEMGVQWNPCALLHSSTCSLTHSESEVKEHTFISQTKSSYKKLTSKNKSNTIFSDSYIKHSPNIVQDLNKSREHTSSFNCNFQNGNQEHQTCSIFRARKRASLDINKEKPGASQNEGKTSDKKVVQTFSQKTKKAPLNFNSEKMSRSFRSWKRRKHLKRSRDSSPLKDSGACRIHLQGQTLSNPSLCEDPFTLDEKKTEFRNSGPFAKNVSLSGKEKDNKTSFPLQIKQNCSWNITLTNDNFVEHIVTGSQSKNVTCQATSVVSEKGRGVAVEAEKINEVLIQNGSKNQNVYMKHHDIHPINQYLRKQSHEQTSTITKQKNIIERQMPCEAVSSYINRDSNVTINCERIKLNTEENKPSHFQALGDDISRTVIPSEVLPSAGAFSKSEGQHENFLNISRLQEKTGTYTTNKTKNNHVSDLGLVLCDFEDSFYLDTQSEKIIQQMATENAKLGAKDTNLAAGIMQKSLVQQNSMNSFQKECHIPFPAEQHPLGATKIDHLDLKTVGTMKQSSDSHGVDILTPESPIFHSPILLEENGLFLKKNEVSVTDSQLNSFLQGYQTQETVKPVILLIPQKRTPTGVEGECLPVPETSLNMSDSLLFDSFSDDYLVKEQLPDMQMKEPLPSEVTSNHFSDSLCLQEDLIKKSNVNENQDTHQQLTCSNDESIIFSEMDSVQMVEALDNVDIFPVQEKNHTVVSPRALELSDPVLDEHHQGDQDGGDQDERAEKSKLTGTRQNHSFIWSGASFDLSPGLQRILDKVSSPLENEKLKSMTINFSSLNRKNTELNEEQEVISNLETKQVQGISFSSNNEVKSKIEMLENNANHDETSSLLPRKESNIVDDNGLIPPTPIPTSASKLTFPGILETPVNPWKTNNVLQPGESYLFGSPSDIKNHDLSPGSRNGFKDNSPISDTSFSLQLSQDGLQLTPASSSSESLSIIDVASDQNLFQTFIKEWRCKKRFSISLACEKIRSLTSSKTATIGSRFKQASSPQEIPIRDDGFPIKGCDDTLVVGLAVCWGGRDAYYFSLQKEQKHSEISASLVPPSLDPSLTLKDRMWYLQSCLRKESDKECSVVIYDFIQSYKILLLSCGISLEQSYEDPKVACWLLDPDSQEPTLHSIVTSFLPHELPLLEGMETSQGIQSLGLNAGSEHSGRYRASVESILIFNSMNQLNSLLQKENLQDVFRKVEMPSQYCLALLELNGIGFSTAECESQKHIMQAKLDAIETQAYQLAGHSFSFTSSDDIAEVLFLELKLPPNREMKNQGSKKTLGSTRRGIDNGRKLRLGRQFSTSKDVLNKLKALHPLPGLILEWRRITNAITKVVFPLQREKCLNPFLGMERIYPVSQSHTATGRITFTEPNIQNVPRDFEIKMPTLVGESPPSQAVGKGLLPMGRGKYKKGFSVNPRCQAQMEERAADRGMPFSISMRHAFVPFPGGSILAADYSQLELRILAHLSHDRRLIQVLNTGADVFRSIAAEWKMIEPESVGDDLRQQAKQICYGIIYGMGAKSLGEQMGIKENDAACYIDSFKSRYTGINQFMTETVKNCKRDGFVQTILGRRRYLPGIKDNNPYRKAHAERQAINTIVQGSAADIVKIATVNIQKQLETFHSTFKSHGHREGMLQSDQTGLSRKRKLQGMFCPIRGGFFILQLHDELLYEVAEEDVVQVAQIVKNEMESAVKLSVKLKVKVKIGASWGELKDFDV
Briefly: Flag immunoprecipitation from HEK293T cells with or without 5 Gy IR, western blot [panel C].

Experiment [8] concerns the target T6, Human MRE11 core (residues 1-411), bacterially expressed and purified (human, UniProt P49959 1-411).
T6 construct: range 1-411; the only purified MRE11 described is the 1-411 core; also called human MRE11 (residue 1-411); bacterially purified MRE11
T6 sequence (looked up): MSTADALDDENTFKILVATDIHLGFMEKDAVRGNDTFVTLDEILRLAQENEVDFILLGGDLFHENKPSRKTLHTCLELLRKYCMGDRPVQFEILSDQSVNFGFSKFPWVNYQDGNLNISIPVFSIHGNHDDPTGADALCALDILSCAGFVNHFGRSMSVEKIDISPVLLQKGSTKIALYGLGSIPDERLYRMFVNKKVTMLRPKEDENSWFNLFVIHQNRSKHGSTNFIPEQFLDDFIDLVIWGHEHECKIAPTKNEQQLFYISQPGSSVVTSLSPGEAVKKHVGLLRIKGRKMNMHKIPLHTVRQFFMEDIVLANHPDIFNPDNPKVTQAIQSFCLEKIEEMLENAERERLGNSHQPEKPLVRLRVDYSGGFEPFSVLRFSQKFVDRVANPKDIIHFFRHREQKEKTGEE
The experiment is described as follows: GST pull-down of bacterially expressed, purified human MRE11, western blot [panel C].

The target of experiment [9] is T7, RPA70, endogenous, in HEK293T cell extracts (UniProt P27694 1-616).
T7 construct: also called RPA1
Briefly: GST pull-down from HEK293T cell extracts, western blot [panel B].

The target of experiment [10] is T2, GRB2 (growth factor receptor-bound …). Briefly: MST, 50 nM Atto488-labelled RPA70 N-terminal domain (1-120), GRB2 titrated [panel D].

Where no end group is shown, it is not given here. [ ]: non-standard residue; d: D form. pY = N[C@@H](Cc1ccc(OP(=O)(O)O)cc1)C(=O)O

For orientation: Kd means the free concentration of one partner at which half of the binding sites on the other are occupied at equilibrium, for simple one-to-one binding. A low value points to tighter binding. B1: the affinity in experiment [1], expressed as Kd, was 2100 nM. On to B2, for which the dissociation constant Kd worked out at 46.8 µM in experiment [2] and 19.7 µM in experiment [3]. Take B3: in experiment [4], the binding result was “no binding”. As to B4, the binding result in [5] is on record as “binds”. On to B5, for which the binding result in [6] and in experiment [7] was “binds” each time. B6: in experiment [8], the binding result is “no binding”. On to B7, for which the binding result in experiment [9] is “no binding”. B8 gave a Kd in [10] of 1600 nM. Take B9: the binding result in experiment [4] is “no binding (tested: about 50 µM)”.
